From doi:10.64898/2025.12.10.692585

Target: Porcine RNA polymerase II, purified (porcine) (UniProt I3LGP4)
Experiment: mass photometry

Substance: Porcine RNA polymerase II, purified (from UniProt I3LGP4 127-1300; P60899 1-125; A0A4X1VYD0 1-67; A0A8D0JYF1 1-58) (complex)
- stoichiometry N: 2
